Data on 1 molecule can be found in paper PMC8537947, “Improved Radiolytic Stability of a ^68Ga-labelled Collagelin Analogue for the Imaging of Fibrosis” (Pharmaceuticals, 2021).

Bridge positions count the residues as written; N and C are the ends. Square brackets hold non-standard residues; d marks the D form. Peptide text beside a SMILES is read from it. * marks the point of attachment. NOTA = O=C(O)CN1CCN(CC(=O)O)CCN(CC(=O)*)CC1; Nle = CCCC[C@H](N)C(=O)O; AEEA = NCCOCCOCC(=O)O

On the set-up of the series: species or system human. An excerpt:
The rat SUVs were translated into a percentage of injected activity (%IA, Equation (3)) for human organs according to Equation (3) (Table S3), where SUVA is the SUVs of the rat organs; gorgan and kgTBweight are, respectively, standard organ weight and standard total body weight of a human. The standard organ masses and total-body weight values were obtained from the OLINDA software (organ level internal dose assessment code, Vanderbilt University, USA, 2007). (3) %IAOrganhuman=SUVA∗gorgan/kgTBweighthuman The %IA values were decay corrected to the animal termination time point at 5, 10, 30, 40, 60, and 120 min post administration and plotted as a function of time. The area under the curve for each organ was integrated using the trapezoid method assuming a simple exponential decay to eternity after the last point. The derived time-integrated activity coefficient (TIAC) for each organ, which is equal to the number of disintegrations (MBq-h/MBq) and dose rate S-values extracted from the Medical Internal […] (MIRD) pamphlet, was used for the computation of organ and whole-body effective doses (mSv/MBq) in humans in the OLINDA/EXM software package (Version 1.1, Vanderbilt University).

As for `CCCC[C@@H]1NC(=O)[C@H](C(C)C)NC(=O)[C@H](CCCNC(=N)N)NC(=O)CNC(=O)[C@@H]2CCCN2C(=O)[C@@H](NC(=O)COCCOCCNC(=O)CN2CCN(CC(=O)O)CCN(CC(=O)O)CC2)CSSC[C@@H](C(=O)O)NC(=O)[C@@H]2CCCN2C(=O)CNC(=O)[C@H](CCC(=O)O)NC(=O)[C@H](CC(=O)O)NC(=O)[C@H](CC(=O)O)NC(=O)CNC(=O)[C@H](CC(C)C)NC(=O)[C@H](Cc2c[nH]cn2)NC(=O)[C@H](CC(C)C)NC(=O)CNC(=O)[C@H](Cc2c[nH]cn2)NC1=O` [[^68Ga]Ga-NO2A-[Nle^13]-Col, [^68Ga]Ga-NOTA-PEG2-c[CPGRVNleHGLHLGDDEGPC], metal not drawn] ({NOTA-AEEA}-CPGRV[Nle]HGLHLGDDEGPC-OH; disulfide 1-18), the “PET/CT examinations per year” value is listed as 4-5, the “administration per year allowed by bone marrow absorbed dose” value is 8000-10,000 MBq per year, the “dose of all organs other than kidney” value was “lower than 0.02 mSv/MBq” and the “dose of the remaining organs” value is listed as “less than 0.009 mSv/MBq”. Moreover, the “estimated absorbed dose, spleen” value is given as 0.003 mGy/MBq.
